# *1 amine or outer side, *2 acyl side, *3 side chain or, on linkers, in order; H or OH if unused. Bridges are numbered along the chain shown (N, C = ends). [ ]: non-standard residue; d: D form. N5,N5‑dimethylglutamine = CN(C)C(=O)CC[C@H](N[*:1])C(=O)[*:2]; Pro(4S-NH2) = N[C@@H]1CN[C@H](C(=O)O)C1
# Legend:
# IgG [1] = assay: SPR, IgG immobilised on CM5 chip, compound as analyte; value from the legend of the grade (**** = Kd <100 nM)
# IgG [2] = assay: SPR, IgG immobilised on CM5 chip, compound as analyte; value from the legend of the grade (++++ = Kd <100 nM)
Kd (IgG [1]),Kd (IgG [2]),Binder
< 100 nM,< 100 nM,cyclo([Pro(4S-NH2)]DCTWHLGELVWCT[dP]) (disulfide 3-13; SMILES CC(C)C[C@@H]1NC(=O)[C@H](Cc2c[nH]cn2)NC(=O)[C@H](Cc2c[nH]c3ccccc23)NC(=O)[C@H]([C@@H](C)O)NC(=O)[C@@H]2CSSC[C@H](NC(=O)[C@H](Cc3c[nH]c4ccccc34)NC(=O)[C@H](C(C)C)NC(=O)[C@H](CC(C)C)NC(=O)[C@H](CCC(=O)O)NC(=O)CNC1=O)C(=O)N[C@@H]([C@@H](C)O)C(=O)N1CCC[C@@H]1C(=O)N1C[C@@H](N)C[C@H]1C(=O)N[C@@H](CC(=O)O)C(=O)N2) [Intermediate 16]
< 100 nM,< 100 nM,"PDCAWHLGELVWCTP (residue 1 = (2S,4S)-4-aminoproline; residue 12 = D-Trp; residue 15 = D-Pro; backbone cyclised head to tail; disulfide Cys3-Cys13) [Intermediate 24]"
< 100 nM,< 100 nM,"cyclo([Pro(4S-NH2)]NCAWHLG[N5,N5‑dimethylglutamine]LVWCT[dP]) (disulfide 3-13; SMILES CC(C)C[C@@H]1NC(=O)[C@H](Cc2c[nH]cn2)NC(=O)[C@H](Cc2c[nH]c3ccccc23)NC(=O)[C@H](C)NC(=O)[C@@H]2CSSC[C@H](NC(=O)[C@H](Cc3c[nH]c4ccccc34)NC(=O)[C@H](C(C)C)NC(=O)[C@H](CC(C)C)NC(=O)[C@H](CCC(=O)N(C)C)NC(=O)CNC1=O)C(=O)N[C@@H]([C@@H](C)O)C(=O)N1CCC[C@@H]1C(=O)N1C[C@@H](N)C[C@H]1C(=O)N[C@@H](CC(N)=O)C(=O)N2) [Intermediate 27]"
< 100 nM,< 100 nM,cyclo([Pro(4S-NH2)]DCAWHLG[N5‑methylglutamine]LVWCT[dP]) (disulfide 3-13) [Intermediate 22]
< 100 nM,< 100 nM,"PDCXWHLGELVWCTP (residue 1 = (2S,4S)-4-aminoproline; residue 4 (X) = homoserine; residue 15 = D-Pro; backbone cyclised head to tail; disulfide Cys3-Cys13) [Intermediate 21]"
< 100 nM,< 100 nM,cyclo([Pro(4S-NH2)]DCAWHLGQLVWCT[dP]) (disulfide 3-13; SMILES CC(C)C[C@@H]1NC(=O)[C@H](Cc2c[nH]cn2)NC(=O)[C@H](Cc2c[nH]c3ccccc23)NC(=O)[C@H](C)NC(=O)[C@@H]2CSSC[C@H](NC(=O)[C@H](Cc3c[nH]c4ccccc34)NC(=O)[C@H](C(C)C)NC(=O)[C@H](CC(C)C)NC(=O)[C@H](CCC(N)=O)NC(=O)CNC1=O)C(=O)N[C@@H]([C@@H](C)O)C(=O)N1CCC[C@@H]1C(=O)N1C[C@@H](N)C[C@H]1C(=O)N[C@@H](CC(=O)O)C(=O)N2) [Intermediate 18]
< 100 nM,< 100 nM,"PDCAWHLGELVWCTP (residue 1 = (2S,4S)-4-aminoproline; residue 12 = 6-chlorotryptophan; residue 15 = D-Pro; backbone cyclised head to tail; disulfide Cys3-Cys13) [Intermediate 19]"
< 100 nM,< 100 nM,"cyclo([Pro(4S-NH2)]DCAWHLG[N5,N5‑dimethylglutamine]LVWCT[dP]) (disulfide 3-13; SMILES CC(C)C[C@@H]1NC(=O)[C@H](Cc2c[nH]cn2)NC(=O)[C@H](Cc2c[nH]c3ccccc23)NC(=O)[C@H](C)NC(=O)[C@@H]2CSSC[C@H](NC(=O)[C@H](Cc3c[nH]c4ccccc34)NC(=O)[C@H](C(C)C)NC(=O)[C@H](CC(C)C)NC(=O)[C@H](CCC(=O)N(C)C)NC(=O)CNC1=O)C(=O)N[C@@H]([C@@H](C)O)C(=O)N1CCC[C@@H]1C(=O)N1C[C@@H](N)C[C@H]1C(=O)N[C@@H](CC(=O)O)C(=O)N2) [Intermediate 23]"
< 100 nM,< 100 nM,cyclo([Pro(4S-NH2)]DCAWHLGALVWCT[dP]) (disulfide 3-13; SMILES CC(C)C[C@@H]1NC(=O)[C@H](C)NC(=O)CNC(=O)[C@H](CC(C)C)NC(=O)[C@H](Cc2c[nH]cn2)NC(=O)[C@H](Cc2c[nH]c3ccccc23)NC(=O)[C@H](C)NC(=O)[C@@H]2CSSC[C@H](NC(=O)[C@H](Cc3c[nH]c4ccccc34)NC(=O)[C@H](C(C)C)NC1=O)C(=O)N[C@@H]([C@@H](C)O)C(=O)N1CCC[C@@H]1C(=O)N1C[C@@H](N)C[C@H]1C(=O)N[C@@H](CC(=O)O)C(=O)N2) [Intermediate 17]
< 100 nM,< 100 nM,"cyclo([Pro(4S-NH2)]ACAWHLG[N5,N5‑dimethylglutamine]LVWCT[dP]) (disulfide 3-13; SMILES CC(C)C[C@@H]1NC(=O)[C@H](Cc2c[nH]cn2)NC(=O)[C@H](Cc2c[nH]c3ccccc23)NC(=O)[C@H](C)NC(=O)[C@@H]2CSSC[C@H](NC(=O)[C@H](Cc3c[nH]c4ccccc34)NC(=O)[C@H](C(C)C)NC(=O)[C@H](CC(C)C)NC(=O)[C@H](CCC(=O)N(C)C)NC(=O)CNC1=O)C(=O)N[C@@H]([C@@H](C)O)C(=O)N1CCC[C@@H]1C(=O)N1C[C@@H](N)C[C@H]1C(=O)N[C@@H](C)C(=O)N2) [Intermediate 26]"
< 100 nM,< 100 nM,cyclo([Pro(4S-NH2)]ACAWHLGALVWCT[dP]) (disulfide 3-13; SMILES CC(C)C[C@@H]1NC(=O)[C@H](C)NC(=O)CNC(=O)[C@H](CC(C)C)NC(=O)[C@H](Cc2c[nH]cn2)NC(=O)[C@H](Cc2c[nH]c3ccccc23)NC(=O)[C@H](C)NC(=O)[C@@H]2CSSC[C@H](NC(=O)[C@H](Cc3c[nH]c4ccccc34)NC(=O)[C@H](C(C)C)NC1=O)C(=O)N[C@@H]([C@@H](C)O)C(=O)N1CCC[C@@H]1C(=O)N1C[C@@H](N)C[C@H]1C(=O)N[C@@H](C)C(=O)N2) [Intermediate 25]
< 100 nM,< 100 nM,cyclo([Pro(4S-NH2)]NCAWHLGALVWCT[dP]) (disulfide 3-13; SMILES CC(C)C[C@@H]1NC(=O)[C@H](C)NC(=O)CNC(=O)[C@H](CC(C)C)NC(=O)[C@H](Cc2c[nH]cn2)NC(=O)[C@H](Cc2c[nH]c3ccccc23)NC(=O)[C@H](C)NC(=O)[C@@H]2CSSC[C@H](NC(=O)[C@H](Cc3c[nH]c4ccccc34)NC(=O)[C@H](C(C)C)NC1=O)C(=O)N[C@@H]([C@@H](C)O)C(=O)N1CCC[C@@H]1C(=O)N1C[C@@H](N)C[C@H]1C(=O)N[C@@H](CC(N)=O)C(=O)N2) [Intermediate 28]

# Source: patent publication US20250223280A1
